Source: the RNAGym collection of RNA variant scans (doi:10.1093/molbev/msab373)

B1: Azoarcus group I ribozyme (parent)
chain: GUGCCUUGCGCCGGGAAACCACGCAAGGGAUGGUGUCAAAUUCGGCGAAACCUAAGCGCCCGCCCGGGCGUAUGGCAACGCCGAGCCAAGCUUCGGCGCCUGCGCCGAUGAAGGUGUAGAGACUAGACGGCACCCACCUAAGGCAAACGCUAUGGUGAAGGCAUAGUCCAGGGAGUGGCGAAAGUCACACAAACCGG

Variants of: B1
Test: reverse-splicing fitness (ratio to wild type); higher = more active; in vitro selection; Mg2+ level not given
Procedure, shortened: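 An in vitro group I ribozyme library with randomized positions was T7-transcribed and gel-purified. In triplicate, 10 pmol RNA in EPPS pH 7.5 was reacted with 50 pmoles of a 30-nt RNA substrate for 1 h at 37 °C across several added MgCl2 levels (1–48 mM), then stopped with EDTA. Products were reverse transcribed from a substrate-complementary primer, PCR-amplified and sequenced (HiSeq 4000). Fitness is a variant's read proportion after selection over that before, normalised to wild type.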
C82G A111G A120C C150G showed a reverse-splicing fitness of 0.0105. For C82G A111G A120C C150U, the reverse-splicing fitness was 0.0417. In the case of C82G A111G A120C C150A, the reverse-splicing fitness is reported as 0.0154. With C82G A111G A120G A145C C169U U176A the reverse-splicing fitness was 0.0179. Work on C82G A111G A120G A145C C169U U176C yielded a reverse-splicing fitness of 0.0166. Work on C82G A111G A120G A145C C169U U176G yielded a reverse-splicing fitness of 0.00427. For C82G A111G A120C A145U C169A U176G, the reverse-splicing fitness was 0.00508. For C82G A111G A120C A145U C169A U176A, the reverse-splicing fitness was 0.0147. Variant C82G A111G A120C A145U C169A U176C has a reverse-splicing fitness of 0.0149. With C82G A111G A120C C169U U176C the reverse-splicing fitness was 0.0134. Variant C82G A111G A120C C169U U176A has a reverse-splicing fitness of 0.0138. C82G A111G A120C C169U U176G gave a reverse-splicing fitness of 0.00596. Variant C82G A111G A120C A145U C150G U176G has a reverse-splicing fitness of 0.00435. C82G A111G A120C A145U C150G U176C showed a reverse-splicing fitness of 0.0121. In the case of C82G A111G A120C A145U C150G U176A, the reverse-splicing fitness is reported as 0.00634. Work on C82G A111G A120G A145C C150U C169G U176G yielded a reverse-splicing fitness of 0.00557. Work on C82G A111G A120G A145C C150U C169G U176A yielded a reverse-splicing fitness of 0.022. C82G A111G A120G A145C C150U C169G U176C gave a reverse-splicing fitness of 0.0155. C82G A111G A120G showed a reverse-splicing fitness of 0.0208. In the case of C82G A111G A120C A145U C150G C169U, the reverse-splicing fitness is reported as 0.00899. C82G A111G A120C A145U C150U C169U U176C showed a reverse-splicing fitness of 0.0143. C82G A111G A120C A145U C150U C169U U176G gave a reverse-splicing fitness of 0.00591. Variant C82G A111G A120C A145U C150U C169U U176A has a reverse-splicing fitness of 0.0143. Work on C82G A111G A120C A145U C150U yielded a reverse-splicing fitness of 0.0494. C82G A111G A120C A145U C169U U176C showed a reverse-splicing fitness of 0.0124. C82G A111G A120C A145U C169U U176G showed a reverse-splicing fitness of 0.00484. C82G A111G A120C A145U C169U U176A showed a reverse-splicing fitness of 0.0129. For C82G A111G A120G A145C C150G C169G, the reverse-splicing fitness was 0.00841. In the case of C82G A111G A120G A145C C150G C169U, the reverse-splicing fitness is reported as 0.00843. Work on C82G A111G A120G A145C C150G C169A yielded a reverse-splicing fitness of 0.00962. With C82G A111G A120C C169A U176A the reverse-splicing fitness was 0.017. Variant C82G A111G A120C C169A U176G has a reverse-splicing fitness of 0.00532. C82G A111G A120C C169A U176C gave a reverse-splicing fitness of 0.0162. C82G A111G A120C C150G C169U U176A gave a reverse-splicing fitness of 0.00806. For C82G A111G A120C C150G C169U U176C, the reverse-splicing fitness was 0.0135. Work on C82G A111G A120C C150G C169U U176G yielded a reverse-splicing fitness of 0.0076. C82G A111G A120C A145U C150G C169U U176A showed a reverse-splicing fitness of 0.0078. With C82G A111G A120C A145U C150G C169U U176G the reverse-splicing fitness was 0.00604. For C82G A111G A120C A145U C150G C169U U176C, the reverse-splicing fitness was 0.0131. With C82G A111G A120G A145C C150U U176A the reverse-splicing fitness was 0.0118. Variant C82G A111G A120G A145C C150U U176C has a reverse-splicing fitness of 0.0149. For C82G A111G A120G A145C C150U U176G, the reverse-splicing fitness was 0.00599. In the case of C82G A111G A120G A145C C169G U176C, the reverse-splicing fitness is reported as 0.0207. Variant C82G A111G A120G A145C C169G U176G has a reverse-splicing fitness of 0.00483. For C82G A111G A120G A145C C169G U176A, the reverse-splicing fitness was 0.0262. With C82G A111G A120G A145C C150G C169U U176C the reverse-splicing fitness was 0.0147. With C82G A111G A120G A145C C150G C169U U176G the reverse-splicing fitness was 0.00615. C82G A111G A120G A145C C150G C169U U176A gave a reverse-splicing fitness of 0.0139. With C82G A111G A120C A145U C150U C169G U176A the reverse-splicing fitness was 0.0171. C82G A111G A120C A145U C150U C169G U176G showed a reverse-splicing fitness of 0.00596. C82G A111G A120C A145U C150U C169G U176C showed a reverse-splicing fitness of 0.0179. In the case of C82G A111G A120G A145C C150A U176C, the reverse-splicing fitness is reported as 0.0132. Work on C82G A111G A120G A145C C150A U176G yielded a reverse-splicing fitness of 0.00588. C82G A111G A120G A145C C150A U176A gave a reverse-splicing fitness of 0.0127. C82G A111G A120G A145C C150G C169G U176G showed a reverse-splicing fitness of 0.00523. Variant C82G A111G A120G A145C C150G C169G U176A has a reverse-splicing fitness of 0.00914. C82G A111G A120G A145C C150G C169G U176C showed a reverse-splicing fitness of 0.00887. C82G A111G A120C C150U C169G U176A showed a reverse-splicing fitness of 0.0185. Work on C82G A111G A120C C150U C169G U176G yielded a reverse-splicing fitness of 0.00572. Work on C82G A111G A120C C150U C169G U176C yielded a reverse-splicing fitness of 0.0206. C82G A111G A120C A145U U176C gave a reverse-splicing fitness of 0.0434. Variant C82G A111G A120C A145U U176G has a reverse-splicing fitness of 0.00776. Variant C82G A111G A120C A145U U176A has a reverse-splicing fitness of 0.0294. C82G A111G A120C C150U C169U U176C gave a reverse-splicing fitness of 0.017. Work on C82G A111G A120C C150U C169U U176A yielded a reverse-splicing fitness of 0.0166. For C82G A111G A120C C150U C169U U176G, the reverse-splicing fitness was 0.00815. For C82G A111G A120C C150G C169G U176A, the reverse-splicing fitness was 0.00929. C82G A111G A120C C150G C169G U176C showed a reverse-splicing fitness of 0.0117. Variant C82G A111G A120C C150G C169G U176G has a reverse-splicing fitness of 0.00647. C82G A111G A120G A145C C150A C169A U176C showed a reverse-splicing fitness of 0.00767. Work on C82G A111G A120G A145C C150A C169A U176G yielded a reverse-splicing fitness of 0.00537. With C82G A111G A120G A145C C150A C169A U176A the reverse-splicing fitness was 0.0139. Variant C82G A111G A120C C150A C169G U176C has a reverse-splicing fitness of 0.0218. Variant C82G A111G A120C C150A C169G U176G has a reverse-splicing fitness of 0.00655. In the case of C82G A111G A120C C150A C169G U176A, the reverse-splicing fitness is reported as 0.0218. Work on C82G A111G A120G A145C C150G U176A yielded a reverse-splicing fitness of 0.0082. C82G A111G A120G A145C C150G U176C gave a reverse-splicing fitness of 0.0133. C82G A111G A120G A145C C150G U176G gave a reverse-splicing fitness of 0.00368. Work on C82G A111G A120G A145C C150A yielded a reverse-splicing fitness of 0.00699. Work on C82G A111G A120G A145C C150U yielded a reverse-splicing fitness of 0.00975. With C82G A111G A120G A145C C150G the reverse-splicing fitness was 0.00711. Variant C82G A111G A120C A145U C169G U176C has a reverse-splicing fitness of 0.0163. Variant C82G A111G A120C A145U C169G U176G has a reverse-splicing fitness of 0.00477. C82G A111G A120C A145U C169G U176A showed a reverse-splicing fitness of 0.0157.
